This note sets out measurements from patent US20240132624A1 (Ablynx, published 2024).

The target in assay [1] is T1, cyno FcRn/b2M (cyno, UniProt Q8SPV9 24-297; Q8SPW0 21-119, biotinylated).
T1 construct: bought recombinant biotinylated protein (Immunitrack ITF05 or ACRO FCM-C82W5); also called cFcRn; cFcRn/cb2M
The assay is described as follows: SPR pH 6.0.
Description: (§1) The affinity of the purified, multivalent ISVD constructs for human and cyno FcRn was determined on the MASS-2 (Sierra sensors, Gmbh) instrument, hFcRn/hb2M and cFcRn/cb2M was captured on a Biotin-tag Capture Chip or a High Capacity Amine Chip (pre-immobilized with neutravidin). The ISVD constructs were injected at 6 different concentrations (between 1 and 4000 nM) and allowed to associate for 120 s at 45 μL/min and dissociate for 600 s-3600 s at 45 μL/min. […] Evaluation of the sensorgrams was based on the 1:1 Langmuir dissociation model simultaneously fitting on and off-rates.

In assay [2] the target is T2, human FcRn/b2M (human, UniProt P61769 21-119, biotinylated).
T2 construct: bought recombinant biotinylated protein (ACRO FCM-H82W4 or Immunitrack ITF01); also called hFcRn; hFcRn/hb2M
Description: SPR pH 6.0.
Description: as §1

Assay [3] addresses T3, human serum albumin (human, UniProt P02768 25-609).
T3 construct: also called HSA
Description: SPR pH 6.0.
Description: (§2) The affinity of the purified, multivalent ISVD constructs for human and mouse serum albumin (HSA and MSA, respectively) was determined on the ProteOn XPR36 (BioRad Laboratories, Inc.) instrument. […] The ISVD constructs were injected at 6 different concentrations (between 1 and 500 nM) and allowed to associate for 120 s at 45 μL/min and dissociate for 600s-3600s at 45 μL/min. Evaluation of the sensorgrams was based on the 1:1 Langmuir dissociation model simultaneously fitting on and off-rates.

Assay [4] has as its target T4, mouse serum albumin (mouse, UniProt P07724 25-608).
T4 construct: also called MSA
The assay is described as follows: SPR pH 6.0.
Description: as §2

Assay [5] deals with T3, human serum albumin. The assay is described as follows: SPR pH 7.4.
Description: as §2
The target in assay [6] is T4, mouse serum albumin. Description: SPR pH 7.4.
Description: as §2
Assay [7] deals with T1, cyno FcRn/b2M. Description: SPR pH 7.4.
Description: as §1
The target in assay [8] is T2, human FcRn/b2M. The assay is described as follows: SPR pH 7.4.
Description: as §1
In assay [9] the target is T3, human serum albumin. The assay is described as follows: SPR pH 7.4. The source holds these as a separate data set.
Description: as §2
For assay [10], the target named is T4, mouse serum albumin. Description: SPR pH 7.4. The source holds these as a separate data set.
Description: as §2
Assay [11] addresses T3, human serum albumin. Description: SPR pH 6.0. The source holds these as a separate data set.
Description: as §2
Assay [12] addresses T4, mouse serum albumin. The assay is described as follows: SPR pH 6.0. The source holds these as a separate data set.
Description: as §2
Assay [13] deals with T1, cyno FcRn/b2M. The assay is described as follows: SPR pH 6.0. This is another data set of the same source.
Description: as §1
For assay [14], the target named is T2, human FcRn/b2M. The assay is described as follows: SPR pH 6.0. This is another data set of the same source.
Description: as §1
In assay [15] the target is T1, cyno FcRn/b2M. The assay is described as follows: SPR pH 7.4. This is another data set of the same source.
Description: as §1
In assay [16] the target is T2, human FcRn/b2M. The assay is described as follows: SPR pH 7.4. The source holds these as a separate data set.
Description: as §1
Assay [17] addresses T1, cyno FcRn/b2M. The assay is described as follows: SPR pH 6.0. The source holds these as a separate data set.
Assay [18] concerns the target T2, human FcRn/b2M. Description: SPR pH 6.0. This is another data set of the same source.
Assay [19] deals with T1, cyno FcRn/b2M. Description: SPR pH 7.4. The source holds these as a separate data set.
Assay [20] deals with T2, human FcRn/b2M. The assay is described as follows: SPR pH 7.4. This is another data set of the same source.
Assay [21] deals with T2, human FcRn/b2M. The assay is described as follows: SPR pH 6.0. This is another data set of the same source.
For assay [22], the target named is T1, cyno FcRn/b2M. The assay is described as follows: SPR; pH 7.4 vs pH 6.0. On the technique in general: Surface plasmon resonance follows binding to a sensor surface in real time, without labels.
The target of assay [23] is T2, human FcRn/b2M. The assay is described as follows: SPR; pH 7.4 vs pH 6.0.
Assay [24] has as its target T1, cyno FcRn/b2M. Description: SPR pH 6.0. This is another data set of the same source.
Description: (§3) The affinities of the monovalent purified, tagless ISVDs were determined for human FcRn on ProteOn XPR36 (BioRad Laboratories, Inc.), the MASS-2 (Sierra sensors, Gmbh) or SPR-32 (Bruker Corporation) instrument. In the same way, the affinities of bivalent ISVD constructs comprising two of the same monovalent building blocks of purified, tagless ISVDs were determined for human FcRn on ProteOn XPR36 (BioRad Laboratories, Inc.), the MASS-2 (Sierra sensors, Gmbh) or SPR-32 (Bruker Corporation) instrument. For affinity measurements, ˜1000-3000RU (hFcRn/hb2M; ACRO Biosystems FCM-H82W4) was captured on a ProteOn NLC sensor (ProteOn) or Biotin-tag Capture Chip or a High Capacity Amine Chip (pre-immobilized with neutravidin; MASS-2). The ISVDs were injected at 6 different concentrations (between 1 and 4000 nM) and allowed to associate for 120s at 45 μL/min and dissociate for 600s-3600s at 45 μL/min. […] Evaluation of the sensorgrams was based on the 1:1 Langmuir dissociation model simultaneously fitting on and off-rates.
For assay [25], the target named is T2, human FcRn/b2M. The assay is described as follows: SPR pH 6.0. This is another data set of the same source.
Description: as §3
Assay [26] addresses T1, cyno FcRn/b2M. Description: SPR pH 7.4. The source holds these as a separate data set.
Description: as §3
The target in assay [27] is T2, human FcRn/b2M. Description: SPR pH 7.4. The source holds these as a separate data set.
Description: as §3

T2 sequence (chain, as listed by the source limits assumed, chain 1 of 2): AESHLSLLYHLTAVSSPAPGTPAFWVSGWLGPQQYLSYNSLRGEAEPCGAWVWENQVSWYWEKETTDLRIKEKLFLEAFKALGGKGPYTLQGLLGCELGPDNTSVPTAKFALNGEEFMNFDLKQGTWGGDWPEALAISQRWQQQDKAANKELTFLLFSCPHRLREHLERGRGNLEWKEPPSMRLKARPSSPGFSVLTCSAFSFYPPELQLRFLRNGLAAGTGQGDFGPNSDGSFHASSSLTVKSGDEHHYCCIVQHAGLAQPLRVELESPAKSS
T2 sequence (P61769 21-119 limits assumed, chain 2 of 2): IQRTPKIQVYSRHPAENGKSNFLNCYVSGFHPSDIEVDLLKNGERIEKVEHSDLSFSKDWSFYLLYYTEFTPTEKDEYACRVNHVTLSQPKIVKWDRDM
T4 sequence (P07724 25-608 limits assumed): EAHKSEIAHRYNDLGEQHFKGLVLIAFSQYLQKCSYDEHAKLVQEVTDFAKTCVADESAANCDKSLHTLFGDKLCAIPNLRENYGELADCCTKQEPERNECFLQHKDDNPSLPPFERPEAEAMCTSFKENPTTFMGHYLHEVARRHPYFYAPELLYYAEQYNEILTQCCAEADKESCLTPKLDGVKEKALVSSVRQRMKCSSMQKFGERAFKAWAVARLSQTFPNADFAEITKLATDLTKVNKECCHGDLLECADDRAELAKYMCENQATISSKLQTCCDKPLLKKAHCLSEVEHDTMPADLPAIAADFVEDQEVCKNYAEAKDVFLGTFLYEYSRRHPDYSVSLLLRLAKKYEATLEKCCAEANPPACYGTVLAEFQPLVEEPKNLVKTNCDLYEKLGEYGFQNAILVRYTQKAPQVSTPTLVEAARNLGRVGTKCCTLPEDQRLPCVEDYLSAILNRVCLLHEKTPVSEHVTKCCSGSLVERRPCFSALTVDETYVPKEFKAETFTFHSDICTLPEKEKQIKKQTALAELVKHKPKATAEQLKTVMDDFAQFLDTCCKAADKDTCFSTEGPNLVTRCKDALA
T1 sequence (Q8SPV9 24-297 limits assumed, chain 1 of 2): as the sequence (chain, as listed by the source limits assumed, chain 1 of 2) above, with N39D, E44Q, G99S, S189G, S190N, L217M, S269T counted along it
T1 sequence (Q8SPW0 21-119 limits assumed, chain 2 of 2): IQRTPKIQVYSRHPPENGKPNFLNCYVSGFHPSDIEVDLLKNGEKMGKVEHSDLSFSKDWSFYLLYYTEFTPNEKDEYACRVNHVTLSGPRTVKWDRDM

B1: T026301170 (bispecific antibody)
chain: DVQLVESGGGVVQPGGSLRLSCAASGFTFSSYAMYWVRQAPGKGLEWVSAISSGGGSTDYADSVKGRFTISRDNSKNTLYLQMNSLRPEDTALYYCAADTLYTSLTWYSYWGQGTLVTVSSGGGGSGGGGSGGGGSGGGGSGGGGSGGGGSGGGGSEVQLVESGGGVVQPGGSLRLSCAASGFTFRSFGMSWVRQAPGKGPEWVSSISGSGSDTLYADSVKGRFTISRDNSKNTLYLQMNSLRPEDTALYYCTIGGSLSRSSQGTLVTVSSA
notes: bispecific ISVD construct; also called T0263018B11(E1D)-35GS-ALB23002-A
What is called Kd is the concentration at which binding is half-saturated. The low end stands for a tighter complex, the high end for a looser complex. Take B1: the Kd with cyno FcRn/b2M [1] was 7.9 nM; with human FcRn/b2M [2], 12 nM; with human serum albumin [3], 6.1 nM; with mouse serum albumin [4], 67 nM; with human serum albumin [5] it was 13 nM; in the assay with mouse serum albumin [6], 85 nM. For the same molecule, the Kd with cyno FcRn/b2M [7] turned out to be 290 nM; with human FcRn/b2M [8] it was 450 nM.

B2: T026301198 (bispecific antibody, name in Kabat numbering)
chain: DVQLVESGGGVVQPGGSLRLSCAASGFTFSSYAMYWVRQAPGKGLEWVSAISSGGGSTDYADSVKGRFTISRDNSKNTLYLQMNSLRPEDTALYYCAADTLYTSLTSYSYWGQGTLVTVSSGGGGSGGGGSGGGGSGGGGSGGGGSGGGGSGGGGSEVQLVESGGGVVQPGGSLRLSCAASGFTFRSFGMSWVRQAPGKGPEWVSSISGSGSDTLYADSVKGRFTISRDNSKNTLYLQMNSLRPEDTALYYCTIGGSLSRSSQGTLVTVSSA
notes: bispecific ISVD construct; also called T0263018B11(E1D, W100cS)-35GS-ALB23002-A
Regarding B2, the Kd with cyno FcRn/b2M [1] came out at 67 nM; in the assay with human serum albumin [3], 7.3 nM; in the assay with mouse serum albumin [4], 89 nM; with human serum albumin [5] it was 15 nM; with mouse serum albumin [6] it was 120 nM; with cyno FcRn/b2M [7], 2900 nM. The molecule also displayed a Kd with human FcRn/b2M [8] of 2500 nM.

B3: T026301197 (bispecific antibody, name in Kabat numbering)
chain: DVQLVESGGGVVQPGGSLRLSCAASGFTFSSYAMYWVRQAPGKGLEWVSAISQGGGSTDYADSVKGRFTISRDNSKNTLYLQMNSLRPEDTALYYCAADTLYTSLTWYSYWGQGTLVTVSSGGGGSGGGGSGGGGSGGGGSGGGGSGGGGSGGGGSEVQLVESGGGVVQPGGSLRLSCAASGFTFRSFGMSWVRQAPGKGPEWVSSISGSGSDTLYADSVKGRFTISRDNSKNTLYLQMNSLRPEDTALYYCTIGGSLSRSSQGTLVTVSSA
notes: bispecific ISVD construct; also called T0263018B11(E1D, S52aQ)-35GS-ALB23002-A
Consider B3, for which the Kd in the assay with cyno FcRn/b2M [1] stood at 41 nM; with human FcRn/b2M [2], 71 nM; with human serum albumin [3], 5.1 nM; with mouse serum albumin [4] it was 57 nM; in the assay with human serum albumin [5], 11 nM; with mouse serum albumin [6], 69 nM. Further, the Kd with cyno FcRn/b2M [7] came to 2400 nM; in the assay with human FcRn/b2M [8], 2600 nM.

B4: T026301257 (bispecific antibody, not shown: small tags and cut ends)
chain: EVQLVESGGGVVQPGGSLRLSCAASGFTFSSYAMYWVRQAPGKGLEWVSAISSGGGSTDYADSVKGRFTISRDNSKNTLYLQMNSLRPEDTALYYCAADTLYTSLTWYSYWGQGTLVTVSSGGGGSGGGGSGGGGSGGGGSGGGGSGGGGSGGGGSEVQLVESGGGVVQPGGSLRLSCAASGFTFRSFGMSWVRQAPGKGPEWVSSISGSGSDTLYADSVKGRFTISRDNSKNTLYLQMNSLRPEDTALYYCTIGGSLSRSSQGTLVTVSSA
notes: tetravalent ISVD construct; also called X-Y-FcRn-35GS-ALB23002
In general, koff refers to the rate constant with which the complex falls apart. High values mean fast dissociation, low ones slow dissociation. As for B4, the Kd with human serum albumin [9] is 11 nM; with human serum albumin [11] it was 14 nM; with cyno FcRn/b2M [13], 20 nM; with human FcRn/b2M [14], 34 nM; with cyno FcRn/b2M [15] it was 710 nM; in the assay with human FcRn/b2M [16], 1200 nM. Also, the results for the koff with mouse serum albumin [10] and in the assay with mouse serum albumin [12] were 0.052 s⁻¹ and 0.056 s⁻¹, respectively.

B5: T026301064 (VHH, name in Kabat numbering)
VHH: EVQLVESGGGVVQPGGSLRLSCAASGFTFSSYDMYWVRQAPGKGLEWVSAISQGGGSTDYADSVKGRFTISRDNSKNTLYLQMNSLRPEDTALYYCAADTLYTSLTWYSYWGQGTLVTVSS
notes: tagless
In the case of B5, the Kd stood at 3.8 nM in the assay with cyno FcRn/b2M [17], 9.4 nM in the assay with human FcRn/b2M [18], 2400 nM with cyno FcRn/b2M [19] and 3700 nM with human FcRn/b2M [20]. This molecule returned a koff with human FcRn/b2M [21] of 0.00046 s⁻¹. In addition, the “KD ratio pH 7.4/6.0” value in the assay with cyno FcRn/b2M [22] stood at 632; with human FcRn/b2M [23], 394.

B6: T026301266 (other)
VHH 1: EVQLVESGGGVVQPGGSLRLSCAASGFTFSSYAMYWVRQAPGKGLEWVSAISSGGGSTDYADSVKGRFTISRDNSKNTLYLQMNSLRPEDTALYYCAADTLYTSLTWYSYWGQGTLVTVSS
VHH 2: EVQLVESGGGVVQPGGSLRLSCAASGFTFRSFGMSWVRQAPGKGPEWVSSISGSGSDTLYADSVKGRFTISRDNSKNTLYLQMNSLRPEDTALYYCTIGGSLSRSSQGTLVTVSSA
notes: tetravalent ISVD construct; also called X-FcRn-Y-ALB23002
Take B6: the Kd with human serum albumin [9] was found to be 8.6 nM; with human serum albumin [11], 12 nM; in the assay with cyno FcRn/b2M [13], 26 nM; with human FcRn/b2M [14] it was 41 nM; in the assay with cyno FcRn/b2M [15], 880 nM; with human FcRn/b2M [16] it was 1600 nM. For the same molecule, the figures for the koff with mouse serum albumin [10] and in the assay with mouse serum albumin [12] were 0.048 s⁻¹ and 0.053 s⁻¹, respectively.

B7: T026301079 (VHH, name in Kabat numbering)
VHH: EVQLVESGGGVVQPGGSLRLSCAASGFTFSSYAMYWVRQAPGKGLEWVSAISQGGGSTDYADSVKGRFTISRDNSKNTLYLQMNSLRPEDTALYYCAADTLYTSLTSYSYWGQGTLVTVSS
notes: tagless
As for B7, the Kd in the assay with cyno FcRn/b2M [17] is 76 nM; in the assay with human FcRn/b2M [18] it was 120 nM; in the assay with cyno FcRn/b2M [19], 5900 nM. The molecule further displayed a dissociation rate constant (koff) with human FcRn/b2M [21] of 0.0065 s⁻¹. Moreover, the “KD ratio pH 7.4/6.0” value with cyno FcRn/b2M [22] is 78.

B8: T026301233 (other, name in Kabat numbering, not shown: small tags and cut ends)
chain: DVQLVESGGGVVQPGGSLRLSCAASTFTFSSYAMYWVRQAPGKGLEWVSAISQGGGSTDYADSVKGRFTISRDNSKNTLYLQMNSLRPEDTALYYCAADTLYTSLTSYSYWGQGTLVTVSS
notes: pentavalent ISVD construct
As to B8, the Kd is 270 nM with cyno FcRn/b2M [24], 490 nM with human FcRn/b2M [25], 420 nM with cyno FcRn/b2M [26] and 750 nM with human FcRn/b2M [27].

B9: T026301234 (other, not shown: small tags and cut ends)
chain: DVQLVESGGGVVQPGGSLRLSCAASGFTFSSYAMYWVRQAPGKGLEWVSAISSGGGSTDYADSVKGRFTISRDNSKNTLYLQMNSLRPEDTALYYCAADTLYTSLTWYSYWGQGTLVTVSS
notes: pentavalent ISVD construct
B9: the Kd worked out at 14 nM with cyno FcRn/b2M [24], 26 nM with human FcRn/b2M [25], 490 nM with cyno FcRn/b2M [26] and 740 nM in the assay with human FcRn/b2M [27].

B10: T026301111 (VHH, name in Kabat numbering)
VHH: EVQLVESGGGVVQPGGSLRLSCAASGFTFSEYAMYWVRQAPGKGLEWVSAISQGGGSTDYADSVKGRFTISRDNSKNTLYLQMNSLRPEDTALYYCAADTLYTSLTWYSYWGQGTLVTVSS
notes: tagless
Turning to B10, the Kd came out at 48 nM with cyno FcRn/b2M [17], 77 nM in the assay with human FcRn/b2M [18], 5000 nM in the assay with cyno FcRn/b2M [19] and 5400 nM with human FcRn/b2M [20]. In the assay with human FcRn/b2M [21], this molecule came in with a koff of 0.0032 s⁻¹. Moreover, the “KD ratio pH 7.4/6.0” value amounted to 104 in the assay with cyno FcRn/b2M [22] and 70 with human FcRn/b2M [23].

B11: T026301259 (bispecific antibody, not shown: small tags and cut ends)
chain: EVQLVESGGGVVQPGGSLRLSCAASGFTFSSYAMYWVRQAPGKGLEWVSAISSGGGSTDYADSVKGRFTISRDNSKNTLYLQMNSLRPEDTALYYCAADTLYTSLTWYSYWGQGTLVTVSSGGGGSGGGSEVQLVESGGGVVQPGGSLRLSCAASGFTFRSFGMSWVRQAPGKGPEWVSSISGSGSDTLYADSVKGRFTISRDNSKNTLYLQMNSLRPEDTALYYCTIGGSLSRSSQGTLVTVSSA
notes: tetravalent ISVD construct; also called X-Y-FcRn-ALB23002
Take B11: the Kd with human serum albumin [9] was 7.32 nM; with human serum albumin [11], 9.8 nM; with cyno FcRn/b2M [13], 15 nM; with human FcRn/b2M [14] it was 25 nM; with cyno FcRn/b2M [15], 480 nM; with human FcRn/b2M [16], 830 nM. In addition, the koff stood at 0.037 s⁻¹ in the assay with mouse serum albumin [10] and 0.038 s⁻¹ with mouse serum albumin [12].
